Broadly, the stoichiometry N is the number of molecules, sites or subunits per partner or assembly.

Data set [1] deals with T1, KirBac3.1-SCS (Paramagnetospirillum magnetotacticum, UniProt D9N164, C71S/C262S).
T1 construct: prokaryotic Kir channel, native Cys119 kept as only cysteine, expressed in E. coli C41(DE3), Co2+ IMAC, homotetramer, reconstituted in liposomes or bilayers; PDB 6O9U is the native parent, 7N9L/7N9K are SCS and SCS-L124M
T1 sequence (D9N164 1-295 C71S/C262S): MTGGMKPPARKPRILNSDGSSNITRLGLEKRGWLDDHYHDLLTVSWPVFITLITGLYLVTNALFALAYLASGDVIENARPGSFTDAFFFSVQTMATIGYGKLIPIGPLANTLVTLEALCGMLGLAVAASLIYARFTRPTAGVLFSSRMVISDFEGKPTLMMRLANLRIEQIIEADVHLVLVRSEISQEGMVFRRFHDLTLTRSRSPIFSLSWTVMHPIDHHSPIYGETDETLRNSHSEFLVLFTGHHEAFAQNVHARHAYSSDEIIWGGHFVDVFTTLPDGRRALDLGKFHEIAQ
As to the kind of experiment: single-channel recording in planar lipid bilayer. Type of data set: biochemical. The note with it: covalent, at Cys119 near fenestration; pH 7.4, 23 C, -80 mV.

Data set [2] concerns the target T1, KirBac3.1-SCS. Description: ACMA liposome K+ flux assay; single-channel recording; PEGylation gel shift. It is filed as biochemical. The note with it: covalent, at Cys119 near fenestration; activator; pH 8.5 (flux assay).
Data set [3] concerns the molecule itself. As to the kind of experiment: native MS; 200 mM ammonium acetate pH 8.0, 0.5% C8E4 (2x CMC); modified Q-Exactive.
Data set [4] concerns the molecule itself. As to the kind of experiment: crystal structure; sitting drops, vapour diffusion, 4 mg/ml protein; PEG 4,000, PEG 8000, PEG 400, 90 mM HEPES pH 7.5, 1 mM TCEP and 50 mM EDTA or 10 mM CaCl2.
Data set [5] concerns the molecule itself. As to the kind of experiment: SEC; Superdex 200 10/30 in 20 mM TRIS pH 8.0, 150 mM KCl, 0.02% (w/v) DDM; fractions of the tetramer collected.

Substitutions are numbered along the chain they refer to. Numbers in names are those of the source.

On to `CCCCCCCCSS(C)(=O)=O` [octyl MTS-reagent (C119-octyl)], for which, on KirBac3.1-SCS [1], the “single-channel recording in planar lipid bilayer” value is reported as “channels derivatised with one of three MTS-reagents to titrate the effect of chain length”.

Consider `CCCCCCCCCCSS(C)(=O)=O` [decyl-MTS], for which the “ACMA liposome K+ flux assay; single-channel recording; PEGylation gel shift” value on KirBac3.1-SCS [2] is given as “bound decyl chains (C119-decyl) increased activity relative to wild type”.

B1: KirBac3.1 (wild type prokaryotic Kir channel) (natural protein)
chain: T1 sequence (D9N164 1-295 C71S/C262S) with S71C, S262C
notes: KirBac3.1, prokaryotic inward rectifier K+ channel; Co-purifies with phospholipids (PG, PE); also called native KirBac3.1; wild type KirBac3.1; source: E. coli C41(DE3), purified (Co2+ IMAC, Superdex 200 SEC, in DDM)
Regarding B1, the “stoichiometry N” value in data set [3] was found to be 4.

B2: KirBac3.1-SCS (C71S-C262S background) (natural protein)
chain: T1 sequence (D9N164 1-295 C71S/C262S)
notes: KirBac3.1 with two native cysteines mutated to serine; Mutant cDNA bought from Genscript; source: E. coli C41(DE3), purified (Co2+ IMAC, Superdex 200 SEC, in DDM)
As for B2, the binding result in data set [4] was “binds”.

B3: KirBac3.1 L124M (on the C71S-C262S background) (natural protein)
chain: T1 sequence (D9N164 1-295 C71S/C262S) with L124M
notes: KirBac3.1 with L124M on the SCS (C71S-C262S) background; Mutant cDNA bought from Genscript; also called Leu124M; source: E. coli C41(DE3), purified (Co2+ IMAC, Superdex 200 SEC, in DDM)
For the molecule B3, the binding result in data set [4] is given as “binds”.

B4: KirBac3.1-SCS derivatised with decyl-MTS at Cys119 (natural protein)
chain: T1 sequence (D9N164 1-295 C71S/C262S)
modifications: decyl chain from decyl-methylthiosulfonate on Cys119
notes: KirBac3.1 on the otherwise cysteine-less SCS background (C71S-C262S), native Cys119 kept and derivatised; also called C119-decyl; source: E. coli C41(DE3), purified, reacted with decyl-MTS, re-purified by SEC
As for B4, the binding result in data set [5] is recorded as “binds”.

B5: KirBac3.1-SCS derivatised with hexyl-MTS at Cys119 (natural protein)
chain: T1 sequence (D9N164 1-295 C71S/C262S)
modifications: hexyl chain from hexyl-methylthiosulfonate on Cys119
notes: KirBac3.1 on the otherwise cysteine-less SCS background (C71S-C262S), native Cys119 kept and derivatised; also called C119-hexyl; source: E. coli C41(DE3), purified, reacted with hexyl-MTS, re-purified by SEC
Turning to B5, the binding result in data set [5] is “binds”.

The values are drawn from article PMC8789855, “Ion currents through Kir potassium channels are gated by anionic lipids” (Nature Communications, 2022).
